Test results reported in patent US20120035094A1.

Assays:
[1] = target: Monoclonal antibody M.Ab.F11; test: platelet adhesion to immobilized M.Ab.F11 (150 ng/well), BCA protein read-out; peptide at 50 µM
[2] = target: Monoclonal antibody M.Ab.F11; test: platelet adhesion to immobilized M.Ab.F11 (150 ng/well), BCA protein read-out; peptide at 500 µM

Row | % inhibition of the adhesion of platelets to immobilized M.Ab.F11 [1] | % inhibition of the adhesion of platelets to immobilized M.Ab.F11 [2] | Binder
1 | 10% | 70% | KSVTREDTGTYTC [F11R-peptide 4]
2 | 60% | 70% | SVTVHSSEPEVRIPENNPVKLSC [F11R-peptide 1]
